# Data published in US20230272056A1 (Merck Sharp & Dohme, published 2023).
# Where a chain is given by its changes, count along the chain named. Names may count otherwise.
# B1: VH W33Y/VL R53Y (91BJM) (Fab, V domains shown)
# VH: EVQLVQSGAEVKKPGASVKVSCKASGYTFTSYYMHWVRQAPGQGLEWMGRIDPQSGGIKYAQKFQGRATLTVDTSTSTAYMELSRLRSDDTAVYYCARWDYGGYFDVWGQGTLVTVSS
# VL: DIQMTQSPSSLSASVGDRVTITCRASQDITNYLNWYQQKPGKAVKLLIYYTSYLHSGVPSRFSGSGSGTDYTLTISSLQPEDFATYFCQQGDTLPWTFGQGTKLEIKR
# notes: also called VH33/VL53
# B2: VH W33Y/VL T93Y (92BJM) (Fab, V domains shown)
# VH: B1 VH
# VL: B1 VL with Y53R, T93Y
# notes: also called VH33/VL93
# B3: VH W33Y/VL T30Y (90BJM) (Fab, V domains shown)
# VH: B1 VH
# VL: B1 VL with T30Y, Y53R
# notes: also called VH33/VL30
# B4: 64BLH (Fab, V domains shown)
# VH: B1 VH with Y33D
# VL: DIQMTQSPSSLSASVGDRVTITCRASQDIYNYLNWYQQKPGKAVKLLIYYTSVLETGVPSRFSGSGSGTDYTLTISSLQPEDFATYFCQQGDTLPWTFGQGTKLEIK
# notes: also called 16BLM Fab
# B5: 55BLH (Fab, V domains shown)
# VH: B1 VH with Y33D, K59R
# VL: B4 VL with N31S, V53N
# notes: also called 07BLM Fab
# B6: 59BLH (Fab, V domains shown)
# VH: B1 VH with Y33D, K59R
# VL: B4 VL
# notes: also called 11BLM Fab
# B7: 63BLH (Fab, V domains shown)
# VH: B1 VH with Y33D
# VL: B4 VL with V53R
# notes: also called 15BLM Fab; 015BLM Fab
# B8: 54BLH (Fab, V domains shown)
# VH: B1 VH with Y33D, K59R, Y104Q
# VL: B4 VL with V53I
# notes: also called 06BLM Fab
# B9: 60BLH (Fab, V domains shown)
# VH: B1 VH with Y33D, I58V
# VL: B4 VL with T93E
# notes: also called 12BLM Fab
# B10: 67BLH (Fab, V domains shown)
# VH: B1 VH with Y33D, W99Y, Y101H
# VL: B4 VL with V53Y
# notes: also called 19BLM Fab
# Target: T1, human LAP-TGFB1 Fc fusion (human)
# T1 construct: also called human LAP-TGFβ1-Fc; human LAP-TGFβ-Fc isoform 1
# Assay: SPR, antigen-Fc captured, Fab analyte
# T1 sequence (chain, as listed by the source limits assumed): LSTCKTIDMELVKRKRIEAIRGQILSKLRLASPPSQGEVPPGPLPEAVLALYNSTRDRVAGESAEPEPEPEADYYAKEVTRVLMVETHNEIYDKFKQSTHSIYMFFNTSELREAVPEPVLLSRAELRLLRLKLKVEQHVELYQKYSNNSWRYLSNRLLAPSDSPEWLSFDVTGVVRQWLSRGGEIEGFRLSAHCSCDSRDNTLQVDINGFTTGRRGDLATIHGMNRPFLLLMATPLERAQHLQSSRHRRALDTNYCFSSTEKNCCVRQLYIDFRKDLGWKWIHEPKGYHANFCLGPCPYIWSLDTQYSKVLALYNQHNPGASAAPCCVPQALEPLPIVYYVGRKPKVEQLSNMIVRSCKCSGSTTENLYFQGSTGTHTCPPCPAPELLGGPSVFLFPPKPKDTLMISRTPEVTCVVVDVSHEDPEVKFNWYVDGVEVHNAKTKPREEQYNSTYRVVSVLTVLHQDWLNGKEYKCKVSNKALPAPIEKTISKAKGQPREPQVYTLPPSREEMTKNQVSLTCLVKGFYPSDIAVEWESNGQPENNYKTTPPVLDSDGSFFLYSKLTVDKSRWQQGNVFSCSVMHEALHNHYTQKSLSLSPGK
Binder,Fold improvement in KD,Kd,koff,kon
B1,7 fold,11.8 nM,0.0154 s⁻¹,910000 M⁻¹ s⁻¹
B2,4 fold,20.6 nM,0.0134 s⁻¹,650000 M⁻¹ s⁻¹
B3,20 fold,4 nM,0.0075 s⁻¹,1.89e+06 M⁻¹ s⁻¹

# Target: T1, human LAP-TGFB1 Fc fusion
# Assay: SPR pH 7.4, antigen captured on Fab 54BLH
# Excerpt: A Series S C1 sensor chip (Cytiva, catalog BR100535) was immobilized with low densities of high affinity Fab 54BLH on a Biacore T200 instrument with 1×HBS-EP+(Teknova, catalog H8022). This surface served as a monovalent capture surface for a low-density layer of heterodimer human LAP-TGFβ1 complex leaving the second binding site exposed for monovalent kinetic binding analysis with both mAbs and Fabs. Immobilized flow cell 1 served as the reference and flow cells 2, 3 and 4 were used to evaluate the binding interaction between human LAP-TGFβ1 and yeast display mutant mAbs and Fabs.
# Approximately 15-25 RU of human LAP-TGFβ1-Fc was captured to the Fab capture surface followed by injection of 1:3 serially diluted Fabs and mAbs from 6 nM to 0.07 nM (Fabs: 54BLH, 55BLH, 60BLH, 63BLH, 64BLH-mAbs: 69BLH, 70BLH) and 1:3 serially diluted Fab and mAbs from 60 nM to 0.74 nM (Fabs: 59BLH, 66BLH, 67BLH—mAbs: 74BLH, 75BLH, 78BLH, 79BLH, 81BLH, 82BLH) including 0 nM. The binding data was double referenced by subtraction of signal from a reference flow cell and the 0 nM injections for evaluation of Fabs and mAbs respectively. Binding rate constants were calculated/determined by fitting the data with a 1:1 binding model (Cytiva Biacore T200 Evaluation software 3.0).
Binder,Kd,koff,kon
B4,0.062 nM,0.000939 s⁻¹,1.53e+07 M⁻¹ s⁻¹
B5,0.125 nM,0.00109 s⁻¹,8.75e+06 M⁻¹ s⁻¹
B6,0.044 nM,0.000575 s⁻¹,1.31e+07 M⁻¹ s⁻¹
B7,0.355 nM,0.00341 s⁻¹,9.61e+06 M⁻¹ s⁻¹
B8,0.00477 nM,3.34e-05 s⁻¹,7.03e+06 M⁻¹ s⁻¹
B9,0.036 nM,0.000348 s⁻¹,9.65e+06 M⁻¹ s⁻¹
B10,2.36 nM,0.0155 s⁻¹,6.69e+06 M⁻¹ s⁻¹

# Target: T1, human LAP-TGFB1 Fc fusion
# Assay: SPR pH 6.0, antigen captured on Fab 54BLH
# Outline: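 Human LAP-TGFβ1-Fc (~15-25 RU) captured on a low-density 54BLH Fab surface in HBS-EP+, leaving one epitope free for monovalent kinetics. Fabs/mAbs injected in 1:3 series, 6–0.07 nM or 60–0.74 nM plus 0 nM. Double-referenced; rate constants from 1:1 binding fit.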
Binder,Kd,koff,kon
B4,0.182 nM,0.00194 s⁻¹,1.07e+07 M⁻¹ s⁻¹
B5,0.335 nM,0.00248 s⁻¹,7.39e+06 M⁻¹ s⁻¹
B6,0.179 nM,0.00126 s⁻¹,7.08e+06 M⁻¹ s⁻¹
B7,1.06 nM,0.00796 s⁻¹,7.51e+06 M⁻¹ s⁻¹
B8,0.0217 nM,0.000101 s⁻¹,4.65e+06 M⁻¹ s⁻¹
B9,0.296 nM,0.00167 s⁻¹,5.65e+06 M⁻¹ s⁻¹
B10,18.8 nM,0.046 s⁻¹,2.44e+06 M⁻¹ s⁻¹

# Target: T2, human LAP-TGFB2 Fc fusion (human)
# T2 construct: also called human LAP-TGFβ2; LAP-TGFβ isoform 2
# Assay: SPR
# Description: (§1) A Series S CM4 sensor chip (GE Healthcare, catalog BR100534) was immobilized with an anti-human Fc capture antibody following the kit protocol (GE Healthcare, catalog BR100839) on a Biacore T200 instrument with 1× HBS-EP+ (Teknova, catalog H8022). […] Binding specificity between human LAP-TGFβ isoforms 2 and 3 and the tyrosine scanning double mutants were performed in 1× HEPES-buffered saline with EDTA and surfactant (HBS)-EP)+with 0.1 mg/mL BSA at 25° C. […] The binding data were double referenced by subtraction of signal from a reference (capture surface only) flow cell and the negative control 0 nM Fab injection. Binding rate constants were determined by fitting the data with a 1:1 binding model (GE Healthcare Biacore T200 Evaluation software 3.0).
# T2 sequence (chain, as listed by the source limits assumed): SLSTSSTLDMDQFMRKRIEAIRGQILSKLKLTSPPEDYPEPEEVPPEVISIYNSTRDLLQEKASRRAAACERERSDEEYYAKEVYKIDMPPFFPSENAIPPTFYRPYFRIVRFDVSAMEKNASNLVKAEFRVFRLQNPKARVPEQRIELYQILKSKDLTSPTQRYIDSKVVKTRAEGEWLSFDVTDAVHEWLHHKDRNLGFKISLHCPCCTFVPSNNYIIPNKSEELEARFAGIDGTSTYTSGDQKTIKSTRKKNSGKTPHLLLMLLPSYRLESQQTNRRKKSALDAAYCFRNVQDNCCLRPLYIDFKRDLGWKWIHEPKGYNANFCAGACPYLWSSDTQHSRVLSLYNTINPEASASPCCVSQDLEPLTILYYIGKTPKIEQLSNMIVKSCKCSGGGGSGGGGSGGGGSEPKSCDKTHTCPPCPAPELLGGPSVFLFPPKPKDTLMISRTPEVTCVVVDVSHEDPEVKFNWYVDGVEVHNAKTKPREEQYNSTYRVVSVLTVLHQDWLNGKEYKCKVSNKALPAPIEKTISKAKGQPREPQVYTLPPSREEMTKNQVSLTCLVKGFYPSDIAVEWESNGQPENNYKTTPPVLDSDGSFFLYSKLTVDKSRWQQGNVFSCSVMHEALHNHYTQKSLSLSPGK
row,Binder,binding result
1,B1,no binding (tested: 1000 nM Fab)
2,B2,no binding (tested: 1000 nM Fab)
3,B3,no binding (tested: 1000 nM Fab)

# Target: T3, human LAP-TGFB3 Fc fusion (human)
# T3 construct: also called human LAP-TGFβ3; LAP-TGFβ isoform 3
# Assay: SPR
# Description: as §1
# T3 sequence (chain, as listed by the source limits assumed): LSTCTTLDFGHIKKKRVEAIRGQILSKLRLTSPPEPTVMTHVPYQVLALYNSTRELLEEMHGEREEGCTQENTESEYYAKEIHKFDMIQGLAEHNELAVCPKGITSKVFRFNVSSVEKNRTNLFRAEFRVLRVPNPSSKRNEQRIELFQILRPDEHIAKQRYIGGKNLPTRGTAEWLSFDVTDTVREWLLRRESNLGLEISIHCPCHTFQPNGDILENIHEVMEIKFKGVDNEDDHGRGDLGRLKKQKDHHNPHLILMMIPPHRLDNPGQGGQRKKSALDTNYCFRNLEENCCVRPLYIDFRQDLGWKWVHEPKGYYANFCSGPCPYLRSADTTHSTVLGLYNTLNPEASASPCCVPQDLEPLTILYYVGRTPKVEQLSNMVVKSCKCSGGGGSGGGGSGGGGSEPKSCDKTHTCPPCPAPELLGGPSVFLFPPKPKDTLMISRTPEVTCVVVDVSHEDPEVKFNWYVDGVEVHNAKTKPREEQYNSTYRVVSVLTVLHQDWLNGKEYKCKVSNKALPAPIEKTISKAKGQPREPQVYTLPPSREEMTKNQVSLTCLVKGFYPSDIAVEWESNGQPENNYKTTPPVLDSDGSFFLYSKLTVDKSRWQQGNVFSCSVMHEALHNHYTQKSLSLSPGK
row,Binder,binding result
1,B1,no binding (tested: 1000 nM Fab)
2,B2,no binding (tested: 1000 nM Fab)
3,B3,no binding (tested: 1000 nM Fab)

# Target: T1, human LAP-TGFB1 Fc fusion
# Assay: SPR pH 7.4, antigen-Fc captured, Fab analyte
Binder,Fold improvement in KD,Kd,koff,kon
B4,760 fold,0.077 nM,0.0005 s⁻¹,6.51e+06 M⁻¹ s⁻¹
B5,992 fold,0.059 nM,0.000528 s⁻¹,9.08e+06 M⁻¹ s⁻¹
B6,887 fold,0.066 nM,0.00047 s⁻¹,7.1e+06 M⁻¹ s⁻¹
B7,197 fold,0.297 nM,0.00198 s⁻¹,6.79e+06 M⁻¹ s⁻¹
B8,14600 fold,0.004 nM,2.07e-05 s⁻¹,4.96e+06 M⁻¹ s⁻¹
B9,2440 fold,0.024 nM,0.000186 s⁻¹,7.91e+06 M⁻¹ s⁻¹
B10,61 fold,0.961 nM,0.00476 s⁻¹,4.95e+06 M⁻¹ s⁻¹

# Target: T1, human LAP-TGFB1 Fc fusion
# Assay: SPR pH 6.0, antigen-Fc captured, Fab analyte
# Description: A Series S CM4 sensor chip (Cytiva, catalog BR100534) was immobilized with an anti-human Fc capture antibody following the kit protocol (Cytiva, catalog BR100839) on a Biacore T200 instrument with 1× HBS-EP+ (Teknova, catalog H8022). […] The binding data were double referenced by subtraction of signal from a reference (capture surface only) flow cell and the 0 nM Fab injection. Binding rate constants were determined by fitting the data with a 1:1 binding model (Cytiva Biacore T200 Evaluation software 3.0).
Binder,Kd,koff,kon
B4,0.024 nM,0.000843 s⁻¹,3.49e+07 M⁻¹ s⁻¹
B5,0.105 nM,0.000757 s⁻¹,7.17e+06 M⁻¹ s⁻¹
B6,0.049 nM,0.000543 s⁻¹,1.11e+07 M⁻¹ s⁻¹
B7,0.369 nM,0.00277 s⁻¹,7.51e+06 M⁻¹ s⁻¹
B8,0.006 nM,4.73e-05 s⁻¹,7.56e+06 M⁻¹ s⁻¹
B9,0.067 nM,0.000481 s⁻¹,7.23e+06 M⁻¹ s⁻¹
B10,1.59 nM,0.0122 s⁻¹,7.63e+06 M⁻¹ s⁻¹

# Target: T1, human LAP-TGFB1 Fc fusion
# Assay: SPR pH 7.4, antigen-Fc captured, Fab analyte
# Remark: another data set of the same source
Binder,Kd,koff,kon
B4,0.077 nM,0.0005 s⁻¹,6.51e+06 M⁻¹ s⁻¹
B5,0.059 nM,0.000528 s⁻¹,9.08e+06 M⁻¹ s⁻¹
B6,0.066 nM,0.00047 s⁻¹,7.1e+06 M⁻¹ s⁻¹
B7,0.297 nM,0.00198 s⁻¹,6.79e+06 M⁻¹ s⁻¹
B8,0.004 nM,2.07e-05 s⁻¹,4.96e+06 M⁻¹ s⁻¹
B9,0.024 nM,0.000186 s⁻¹,7.91e+06 M⁻¹ s⁻¹
B10,0.961 nM,0.00476 s⁻¹,4.95e+06 M⁻¹ s⁻¹

# Target: T1, human LAP-TGFB1 Fc fusion
# Assay: SPR
row,Binder,Fold change in KD from pH 7.4 to pH 6
1,B4,0.3 fold
2,B5,1.8 fold
3,B6,0.7 fold
4,B7,1.2 fold
5,B8,1.5 fold
6,B9,2.8 fold
7,B10,1.7 fold

# Target: T2, human LAP-TGFB2 Fc fusion
# Assay: SPR pH 7.4
row,Binder,binding result
1,B4,no binding (tested: 1000 nM Fab)
2,B5,no binding (tested: 1000 nM Fab)
3,B6,no binding (tested: 1000 nM Fab)
4,B7,no binding (tested: 1000 nM Fab)
5,B8,no binding (tested: 1000 nM Fab)
6,B9,no binding (tested: 1000 nM Fab)
7,B10,no binding (tested: 1000 nM Fab)

# Target: T3, human LAP-TGFB3 Fc fusion
# Assay: SPR pH 7.4
row,Binder,binding result
1,B4,no binding (tested: 1000 nM Fab)
2,B5,no binding (tested: 1000 nM Fab)
3,B6,no binding (tested: 1000 nM Fab)
4,B7,no binding (tested: 1000 nM Fab)
5,B8,no binding (tested: 1000 nM Fab)
6,B9,no binding (tested: 1000 nM Fab)
7,B10,no binding (tested: 1000 nM Fab)
